The target of assay [1] is T1, recombinant hemagglutinin B/Brisbane/2008, full-length construct (full-length soluble ectodomain, FLsE) (influenza B virus B/Brisbane/60/2008, UniProt C0LT35, strain).
T1 construct: also called B/Brisbane/60/2008; B/Vic
Nature of the assay: multiplex bead assay (Luminex). To be noted: one partner purified.

Assay [2] concerns the target T2, recombinant hemagglutinin B/Brisbane/2008, head construct (trimeric, head-only) (influenza B virus B/Brisbane/60/2008, UniProt C0LT35, strain).
T2 construct: also called rHA head
Nature of the assay: multiplex bead assay (Luminex). The following applies: one partner purified.

B1: year 2 postvaccination Bmem BCR of infant 1, clonally related to the most abundant IBV HA-specific plasma IgG clonotype (antibody, V domains shown)
VH: EVQLVESGGGLVQPGGSLRLSCAASGFTFRSYEMNWVRQAPGKGLEWISYISGSGGTIYYADSVKGRFTISRDNARNSLYLQMNSLRAEDTAVYYCARDLRGIGDYWGQGTLVTVSS
VL: SSELTQDPAVSVALGQTVRITCQGDSLRSYYASWYQQKPGQAPVLVIYGESNRPSGIPDRFSGSSSGNTASLTITGAQAEDEADYYCNSRDNSGNLYVFGSGTKVTVL
As to B1, the binding result is “binds” in assay [1] and “no binding” in assay [2].
